The test system of one data set is AncSZ. The data set is described as follows: phosphorylation enrichment, bacterial display (enrichment ratio); higher = better substrate or ligand; peptides without Tyr show the background.
Another data set deals with EPHB1 (UniProt P54762). Described as above.
The target of the next data set is EPHB2 (UniProt P29323). The description is as above.
In the next data set the target is FGFR1 (UniProt P11362). The data set is described as above.
For the next data set, the target named is FGFR3 (UniProt P22607). The description is as above.
Another data set concerns Fer (mouse). The description is as above.
The next data set concerns the target Fes (UniProt P07332). Described as above.
A further data set has as its target Fyn (UniProt P06241). Described as above.
For the next data set, the target named is Hck (UniProt P08631). The description is as above.
A further data set addresses Jak2 (UniProt O60674). Described as above.
In a further data set the target is MERTK (UniProt Q12866). Described as above.
A further data set has as its system c-Abl (mouse). Described as above.
In the next data set the test system is c-Src. Described as above.
The next data set deals with Grb2 SH2 (UniProt P62993). The experiment in a line: SH2 binding enrichment of the phosphorylated peptide, bacterial display (enrichment ratio); higher = better substrate or ligand; peptides without Tyr show the background.
For a further data set, the target named is SHP2-C SH2. The description is as above.
The target of a further data set is c-Src SH2. The description is as above.
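Throughout, for SH2 binding enrichment of the phosphorylated peptide, bacterial display: peptide library displayed on the E. coli surface as eCPX fusions, selected cells deep-sequenced, score is each peptide's frequency after selection divided by its frequency in the input.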
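Throughout, for phosphorylation enrichment, bacterial display: 11-residue human phosphosite peptides and single-mutation variants displayed on the E. coli surface, counted by deep sequencing, each peptide's frequency after selection divided by its frequency in the unselected input library; frequency after pTyr selection over input frequency; kinase dosed for 20-30% of maximal phosphorylation in three min.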

FGFR3, sequence (P22607 whole entry, looked up): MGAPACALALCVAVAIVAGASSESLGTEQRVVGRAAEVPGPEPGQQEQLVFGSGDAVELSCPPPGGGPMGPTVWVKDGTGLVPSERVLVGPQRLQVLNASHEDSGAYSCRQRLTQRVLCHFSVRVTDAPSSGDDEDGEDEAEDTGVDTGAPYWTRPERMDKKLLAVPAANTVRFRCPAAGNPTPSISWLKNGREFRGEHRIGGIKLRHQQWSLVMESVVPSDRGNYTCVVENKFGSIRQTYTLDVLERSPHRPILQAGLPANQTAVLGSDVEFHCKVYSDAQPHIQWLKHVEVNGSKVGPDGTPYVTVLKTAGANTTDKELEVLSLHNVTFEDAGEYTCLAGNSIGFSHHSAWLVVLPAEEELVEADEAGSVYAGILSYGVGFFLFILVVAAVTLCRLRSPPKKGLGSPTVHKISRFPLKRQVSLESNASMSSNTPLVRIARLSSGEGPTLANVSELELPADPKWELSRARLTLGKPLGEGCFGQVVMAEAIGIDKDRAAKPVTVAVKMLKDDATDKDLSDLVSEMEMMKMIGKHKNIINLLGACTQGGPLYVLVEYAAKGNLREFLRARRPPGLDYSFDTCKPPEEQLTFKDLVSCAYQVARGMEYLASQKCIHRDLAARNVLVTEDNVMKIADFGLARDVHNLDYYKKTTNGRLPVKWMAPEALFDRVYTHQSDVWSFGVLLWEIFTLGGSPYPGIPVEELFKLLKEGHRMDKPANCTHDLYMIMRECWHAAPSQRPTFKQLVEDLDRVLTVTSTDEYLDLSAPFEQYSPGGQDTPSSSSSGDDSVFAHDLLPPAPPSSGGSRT
FGFR1, sequence (P11362 whole entry, looked up): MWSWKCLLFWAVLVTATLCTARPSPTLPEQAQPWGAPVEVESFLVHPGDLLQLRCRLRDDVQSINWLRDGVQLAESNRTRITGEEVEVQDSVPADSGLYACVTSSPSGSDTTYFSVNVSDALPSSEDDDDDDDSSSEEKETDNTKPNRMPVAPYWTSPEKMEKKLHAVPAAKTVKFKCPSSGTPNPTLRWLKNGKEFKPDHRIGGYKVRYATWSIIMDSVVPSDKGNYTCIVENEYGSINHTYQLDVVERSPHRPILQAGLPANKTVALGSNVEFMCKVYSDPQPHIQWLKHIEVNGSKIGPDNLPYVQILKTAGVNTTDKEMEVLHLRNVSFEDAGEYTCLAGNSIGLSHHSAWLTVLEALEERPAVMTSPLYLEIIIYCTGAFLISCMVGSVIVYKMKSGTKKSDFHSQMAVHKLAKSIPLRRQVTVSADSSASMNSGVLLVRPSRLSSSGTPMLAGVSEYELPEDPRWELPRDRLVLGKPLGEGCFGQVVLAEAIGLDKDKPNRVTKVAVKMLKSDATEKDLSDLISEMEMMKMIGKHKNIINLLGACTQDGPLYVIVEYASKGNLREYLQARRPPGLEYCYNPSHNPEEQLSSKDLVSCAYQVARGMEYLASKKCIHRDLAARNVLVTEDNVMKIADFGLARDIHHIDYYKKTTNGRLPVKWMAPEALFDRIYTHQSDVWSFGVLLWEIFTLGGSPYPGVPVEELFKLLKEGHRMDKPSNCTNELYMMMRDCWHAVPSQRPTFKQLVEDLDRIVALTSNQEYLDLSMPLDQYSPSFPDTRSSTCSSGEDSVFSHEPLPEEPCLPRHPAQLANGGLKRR
Hck, sequence (P08631 whole entry, looked up): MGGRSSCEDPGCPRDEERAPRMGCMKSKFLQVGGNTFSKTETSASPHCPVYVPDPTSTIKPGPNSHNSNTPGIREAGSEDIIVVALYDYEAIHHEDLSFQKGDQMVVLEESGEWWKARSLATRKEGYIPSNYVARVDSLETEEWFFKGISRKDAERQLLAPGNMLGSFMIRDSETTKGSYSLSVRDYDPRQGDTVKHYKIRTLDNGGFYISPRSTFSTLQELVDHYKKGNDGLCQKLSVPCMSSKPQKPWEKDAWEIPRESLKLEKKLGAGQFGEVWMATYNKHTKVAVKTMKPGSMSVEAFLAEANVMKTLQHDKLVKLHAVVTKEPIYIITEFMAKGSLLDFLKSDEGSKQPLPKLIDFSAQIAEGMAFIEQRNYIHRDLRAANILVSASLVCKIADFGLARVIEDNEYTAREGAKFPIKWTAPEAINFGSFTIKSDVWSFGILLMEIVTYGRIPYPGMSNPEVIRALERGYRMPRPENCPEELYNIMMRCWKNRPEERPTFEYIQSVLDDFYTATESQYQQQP
MERTK, sequence (Q12866 whole entry, looked up): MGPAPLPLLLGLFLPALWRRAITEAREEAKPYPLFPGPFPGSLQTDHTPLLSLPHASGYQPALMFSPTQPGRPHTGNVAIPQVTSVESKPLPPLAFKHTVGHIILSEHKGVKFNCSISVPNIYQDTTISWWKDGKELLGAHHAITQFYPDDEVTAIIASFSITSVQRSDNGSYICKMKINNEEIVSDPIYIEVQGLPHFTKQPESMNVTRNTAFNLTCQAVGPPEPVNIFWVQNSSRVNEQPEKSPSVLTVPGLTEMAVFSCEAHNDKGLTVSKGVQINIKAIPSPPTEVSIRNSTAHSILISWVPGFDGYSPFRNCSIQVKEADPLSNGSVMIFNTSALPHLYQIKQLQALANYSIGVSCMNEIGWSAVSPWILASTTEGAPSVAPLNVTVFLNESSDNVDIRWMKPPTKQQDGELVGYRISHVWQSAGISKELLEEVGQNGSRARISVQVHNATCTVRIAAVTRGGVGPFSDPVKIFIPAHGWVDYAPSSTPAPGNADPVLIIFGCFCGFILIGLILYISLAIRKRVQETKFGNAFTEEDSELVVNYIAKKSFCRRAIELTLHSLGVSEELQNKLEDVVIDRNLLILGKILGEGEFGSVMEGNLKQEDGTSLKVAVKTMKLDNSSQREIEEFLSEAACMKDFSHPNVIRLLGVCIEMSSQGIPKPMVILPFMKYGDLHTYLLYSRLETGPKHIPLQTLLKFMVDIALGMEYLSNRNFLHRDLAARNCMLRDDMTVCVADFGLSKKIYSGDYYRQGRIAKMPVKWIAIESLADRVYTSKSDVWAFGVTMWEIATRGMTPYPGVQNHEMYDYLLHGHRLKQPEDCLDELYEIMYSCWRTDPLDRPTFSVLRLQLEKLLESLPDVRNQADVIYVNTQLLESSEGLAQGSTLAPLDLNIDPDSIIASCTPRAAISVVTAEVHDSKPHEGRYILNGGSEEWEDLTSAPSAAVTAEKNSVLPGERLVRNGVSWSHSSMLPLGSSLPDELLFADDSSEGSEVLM
EPHB2, sequence (P29323 whole entry, looked up): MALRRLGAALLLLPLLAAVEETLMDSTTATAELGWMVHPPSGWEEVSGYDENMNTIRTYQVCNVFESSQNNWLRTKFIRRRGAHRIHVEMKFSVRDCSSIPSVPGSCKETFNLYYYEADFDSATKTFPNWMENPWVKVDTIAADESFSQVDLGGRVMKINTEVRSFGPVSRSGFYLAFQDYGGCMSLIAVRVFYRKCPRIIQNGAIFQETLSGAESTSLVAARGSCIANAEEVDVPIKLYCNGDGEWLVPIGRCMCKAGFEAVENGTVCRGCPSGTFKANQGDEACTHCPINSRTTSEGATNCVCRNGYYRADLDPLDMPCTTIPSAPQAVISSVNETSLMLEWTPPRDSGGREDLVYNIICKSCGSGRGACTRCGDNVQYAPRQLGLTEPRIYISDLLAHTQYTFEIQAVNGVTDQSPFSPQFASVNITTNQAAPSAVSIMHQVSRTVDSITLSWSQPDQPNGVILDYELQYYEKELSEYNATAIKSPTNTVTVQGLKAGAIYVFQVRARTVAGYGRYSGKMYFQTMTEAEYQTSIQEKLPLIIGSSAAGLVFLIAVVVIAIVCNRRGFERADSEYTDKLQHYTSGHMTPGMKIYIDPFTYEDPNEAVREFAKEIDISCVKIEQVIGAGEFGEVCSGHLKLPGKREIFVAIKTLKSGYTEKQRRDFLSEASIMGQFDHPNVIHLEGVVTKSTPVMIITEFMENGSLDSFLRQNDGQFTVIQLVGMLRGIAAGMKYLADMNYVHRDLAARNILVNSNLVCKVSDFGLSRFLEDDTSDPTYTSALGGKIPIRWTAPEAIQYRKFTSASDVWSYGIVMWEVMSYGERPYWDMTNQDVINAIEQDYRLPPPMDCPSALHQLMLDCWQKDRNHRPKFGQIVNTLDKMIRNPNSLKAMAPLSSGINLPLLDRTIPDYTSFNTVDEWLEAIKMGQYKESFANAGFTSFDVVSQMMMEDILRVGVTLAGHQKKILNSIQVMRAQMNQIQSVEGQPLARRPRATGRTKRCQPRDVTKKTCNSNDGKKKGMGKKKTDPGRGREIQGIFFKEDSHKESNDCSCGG
Fyn, sequence (P06241 whole entry, looked up): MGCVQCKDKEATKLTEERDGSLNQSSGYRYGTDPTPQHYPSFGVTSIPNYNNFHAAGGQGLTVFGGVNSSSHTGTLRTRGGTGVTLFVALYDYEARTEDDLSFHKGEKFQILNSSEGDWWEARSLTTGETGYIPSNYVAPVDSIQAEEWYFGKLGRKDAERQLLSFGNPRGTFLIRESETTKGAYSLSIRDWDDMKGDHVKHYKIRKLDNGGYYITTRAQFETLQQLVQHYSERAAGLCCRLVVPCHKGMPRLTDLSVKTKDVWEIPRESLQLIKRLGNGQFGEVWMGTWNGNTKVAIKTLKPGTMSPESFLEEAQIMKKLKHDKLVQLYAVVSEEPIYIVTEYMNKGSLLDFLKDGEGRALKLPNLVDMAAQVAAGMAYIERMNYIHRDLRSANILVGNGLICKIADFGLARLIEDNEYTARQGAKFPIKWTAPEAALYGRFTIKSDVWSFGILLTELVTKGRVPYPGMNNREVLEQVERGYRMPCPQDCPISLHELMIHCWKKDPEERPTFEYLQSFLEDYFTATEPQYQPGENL
Grb2 SH2, sequence (P62993 whole entry, looked up): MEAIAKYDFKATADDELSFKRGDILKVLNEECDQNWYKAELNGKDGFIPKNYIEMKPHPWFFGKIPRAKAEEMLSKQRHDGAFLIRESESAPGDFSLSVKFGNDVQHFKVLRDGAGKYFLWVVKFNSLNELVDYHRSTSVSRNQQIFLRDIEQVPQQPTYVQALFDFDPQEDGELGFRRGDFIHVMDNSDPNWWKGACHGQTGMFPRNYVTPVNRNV

Turning to PNKAVYTKMMT [G6PD_Y401_E398K], the phosphorylation enrichment amounted to 0.65 in the data set on AncSZ; 0.467 with EPHB1; 0.519 in the data set with EPHB2; 0.661 with FGFR1; 0.423 with FGFR3; 0.656 in the data set on Fer (mouse). Also, the phosphorylation enrichment in the data set with Fes stood at 0.562; with Fyn it was 0.422; with Hck it was 0.437; with Jak2, 0.59; with MERTK, 0.332; with c-Abl (mouse), 0.426. Besides, in the data set on c-Src, the phosphorylation enrichment was 0.601. Also, the SH2 binding enrichment with Grb2 SH2 turned out to be 0.959; with SHP2-C SH2 it was 4.8; with c-Src SH2 it was 3.63.

On to PPEFSYGLQTQ [SRA1_Y35_Q32E], for which the phosphorylation enrichment is 0.724 in the data set on AncSZ; 0.565 with EPHB1; 0.802 with EPHB2; 0.568 with FGFR1; 0.772 with FGFR3; 0.453 in the data set on Fer (mouse). Moreover, the phosphorylation enrichment with Fes was found to be 1.09; with Fyn, 0.446; with Hck, 0.416; with Jak2 it was 0.997; with MERTK, 0.428; in the data set on c-Abl (mouse), 0.661. Besides, the phosphorylation enrichment with c-Src was 0.486. Further, the SH2 binding enrichment with Grb2 SH2 turned out to be 1.06; with SHP2-C SH2, 0.601; in the data set with c-Src SH2, 0.601.

Take PPGRSYSPCDF [TNS1_Y793_Y796C_YF]: the phosphorylation enrichment came to 1.01 in the data set with AncSZ; 0.895 with EPHB1; 0.858 in the data set with EPHB2; 0.716 with FGFR1; 0.816 with FGFR3; 0.689 with Fer (mouse). The phosphorylation enrichment with Fes worked out at 1.16; in the data set with Fyn, 0.431; with Hck, 0.639; with Jak2 it was 0.679; in the data set with MERTK it was 0.676; with c-Abl (mouse), 0.902. Besides, the phosphorylation enrichment with c-Src stood at 0.649. Further, the SH2 binding enrichment with Grb2 SH2 was 1.25; in the data set with SHP2-C SH2, 0.839; with c-Src SH2, 0.696.

In the case of PQGVRYTFTID [DCX_Y103_I104T_YF], the phosphorylation enrichment with AncSZ worked out at 1.41; with EPHB1, 0.768; in the data set with EPHB2 it was 1.04; with FGFR1, 0.521; with FGFR3 it was 1.36; with Fer (mouse) it was 0.796. Also, the phosphorylation enrichment with Fes stood at 1.66; with Fyn it was 0.7; with Hck, 0.642; in the data set with Jak2 it was 1.48; with MERTK, 0.356; in the data set with c-Abl (mouse) it was 1.55. Also, in the data set with c-Src, the phosphorylation enrichment was determined as 0.529. Further, the SH2 binding enrichment with Grb2 SH2 turned out to be 0.786; in the data set with SHP2-C SH2, 0.729; with c-Src SH2, 0.452.

Turning to PRARTYCFKQE [KLHDC9_Y175_S171R_YF], the phosphorylation enrichment with AncSZ is 0.519; with EPHB1, 0.345; with EPHB2, 0.301; in the data set with FGFR1 it was 0.395; in the data set with FGFR3, 0.517; with Fer (mouse), 0.383. The phosphorylation enrichment in the data set with Fes was 0.458; with Fyn it was 0.421; with Hck, 0.502; with Jak2, 0.435; in the data set with MERTK, 0.355; with c-Abl (mouse), 0.591. In the data set on c-Src, the phosphorylation enrichment came to 0.458. The figures for the SH2 binding enrichment in the data set with Grb2 SH2, with SHP2-C SH2 and in the data set with c-Src SH2 were 1.38, 1.12 and 1.35, respectively.

As for PRDSGYSYETI [MAP1B_Y1921_S1917R], the phosphorylation enrichment in the data set on AncSZ was 0.917; with EPHB1, 0.448; with EPHB2, 0.745; with FGFR1 it was 0.679; with FGFR3, 0.898; with Fer (mouse) it was 0.777. For the same sequence, the phosphorylation enrichment with Fes turned out to be 1.29; with Fyn, 0.354; with Hck it was 0.405; with Jak2, 0.781; with MERTK, 0.55; in the data set on c-Abl (mouse) it was 0.542. In addition, in the data set with c-Src, the phosphorylation enrichment was determined as 0.467. For the same sequence, the figures for the SH2 binding enrichment in the data set with Grb2 SH2, with SHP2-C SH2 and with c-Src SH2 were 0.774, 0.564 and 12.7, respectively.

For the sequence PRNLIYFGEHP [TRPV6_Y201_C197R], the phosphorylation enrichment in the data set with AncSZ was 1.23; in the data set with EPHB1, 0.631; in the data set with EPHB2 it was 0.925; with FGFR1, 0.423; with FGFR3, 0.912; in the data set on Fer (mouse) it was 0.619. Also, the phosphorylation enrichment came to 1.51 with Fes; 0.738 with Fyn; 0.932 in the data set with Hck; 1.57 with Jak2; 0.448 with MERTK; 0.92 in the data set on c-Abl (mouse). Besides, the phosphorylation enrichment in the data set with c-Src is 1.08. The SH2 binding enrichment stood at 0.531 in the data set with Grb2 SH2, 0.598 in the data set with SHP2-C SH2 and 0.401 with c-Src SH2.

Turning to PRPAGYPSMVS [CACNA1C_Y1832_T1835M], the phosphorylation enrichment in the data set on AncSZ worked out at 0.678; in the data set with EPHB1, 0.393; with EPHB2, 0.561; with FGFR1, 0.386; with FGFR3 it was 0.364; in the data set on Fer (mouse), 0.412. The phosphorylation enrichment with Fes amounted to 0.668; with Fyn, 0.48; in the data set with Hck it was 0.456; with Jak2, 0.475; in the data set with MERTK, 0.365; in the data set on c-Abl (mouse) it was 0.435. For the same sequence, in the data set with c-Src, the phosphorylation enrichment was 0.416. Moreover, the figures for the SH2 binding enrichment with Grb2 SH2, with SHP2-C SH2 and with c-Src SH2 were 0.755, 0.507 and 0.312, respectively.

Values taken from the supplement of paper PMC10065799, “High-throughput profiling of sequence recognition by tyrosine kinases and SH2 domains using bacterial peptide display” (eLife, 2023).
